These results are taken from patent US20260053904A1 (BIOATLA, published 2026).

Positions count from the first letter of the chain named.

Assay [1] concerns the target T1, recombinant human EpCAM extracellular domain (human, UniProt P16422 24-265).
T1 construct: extracellular domain; Plate-coated antigen of the ELISAs; also called human EpCAM ECD; recombinant EpCAM antigen
T1 sequence (looked up): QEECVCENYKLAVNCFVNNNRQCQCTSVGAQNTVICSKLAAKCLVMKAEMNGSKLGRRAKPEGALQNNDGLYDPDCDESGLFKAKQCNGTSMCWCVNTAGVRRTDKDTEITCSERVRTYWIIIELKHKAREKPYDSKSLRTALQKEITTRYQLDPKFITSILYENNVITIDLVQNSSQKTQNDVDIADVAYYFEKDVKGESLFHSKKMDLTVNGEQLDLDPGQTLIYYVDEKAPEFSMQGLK
Nature of the assay: ELISA on human EpCAM, pH range 5.0 to 7.4. A general note: In an ELISA, binding on a coated surface is turned into a signal by an enzyme label.

Assay [2] concerns the target T2, human EpCAM expressed on cells (CHO, Colo205, 293) (human, UniProt P16422 24-314).
T2 construct: whole, on cells; also called CHO cells expressing human EpCAM; Colo205 cells expressing human EpCAM
T2 sequence (looked up): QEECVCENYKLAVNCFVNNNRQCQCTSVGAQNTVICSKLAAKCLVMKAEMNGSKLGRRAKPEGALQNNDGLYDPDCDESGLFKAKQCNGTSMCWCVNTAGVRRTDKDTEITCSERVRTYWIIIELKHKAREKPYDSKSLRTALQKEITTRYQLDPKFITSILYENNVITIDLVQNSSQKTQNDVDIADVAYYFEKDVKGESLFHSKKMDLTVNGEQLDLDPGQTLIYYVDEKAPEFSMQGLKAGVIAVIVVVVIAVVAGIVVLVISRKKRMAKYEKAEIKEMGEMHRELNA
Nature of the assay: FACS on Colo205 cells, antibody at 1 ug/mL, pH 6.0 and pH 7.4. The protocol: The binding activity of these anti-EpCAM antibodies to EpCAM expressing Colo205 cells were measured by fluorescence activated cell sorting (FACS) at two different pH values of 6.0 and 7.4. Different dosages of the antibodies of 10 μg/mL, 1 μg/mL, 0.1 μg/mL and 0.01 μg/mL were used.

Assay [3] has as its target T3, cyno EpCAM (recombinant, ELISA antigen) (cynomolgus monkey).
T3 construct: extracellular domain; also called cynomolgus EpCAM extracellular domain
Nature of the assay: ELISA, cyno EpCAM, pH 6.0. The method, then: (§1) The binding activities of the humanized conditionally active anti-EpCAM antibodies to cyno EpCAM were similarly measured. The EC50 for binding to the cyno EpCAM at pH 6.0 and pH 7.4 for the humanized conditionally active anti-EpCAM antibodies are summarized in Table 7.
(§2) The ELISA assay was performed using the following protocol: [0388] 1) Coat ELISA plates with 100 μL of 0.5 μg/mL (06_20_17 and 06_28_17 Experiments) or 1 μg/mL (07_06_17 and 07_11_17 Experiments) recombinant EpCAM antigen in carbonate-bicarbonate coating buffer [0389] 2) Cover plates with sealing film and incubate overnight at 4° C. [0390] 3) Decant plates and tap out residual liquid on a stack of paper towels [0391] […] 5) Add 200 μL of various pH incubation buffers to the wells according to the sample map.

The target in assay [4] is T3, cyno EpCAM (recombinant, ELISA antigen). Nature of the assay: ELISA, cyno EpCAM, pH 7.4. The protocol: as §1, §2
The target of assay [5] is T1, recombinant human EpCAM extracellular …. In words: ELISA, human EpCAM, pH 6.0. The protocol:
(§3) The binding activities of the humanized conditionally active anti-EpCAM antibodies to human EpCAM were measured by ELISA, using the template antibody BAP-1-5-01-06, as a control. The EC50 values of the humanized conditionally active anti-EpCAM antibodies for binding to human EpCAM at pH 6.0 and pH 7.4 are summarized in Table 5.
as §2

Assay [6] has the same target. In words: ELISA, human EpCAM, pH 7.4. The method, then:
as §3, §2

Assay [7] addresses T4, cyno EpCAM expressed on 293 cells (cynomolgus monkey).
T4 construct: whole, on cells; also called 293 cells expressing cyno EpCAM
Nature of the assay: FACS on 293 cells expressing cyno EpCAM, pH 6.0. The protocol: (§4) A similar FACS analysis was also carried out using 293 cells expressing cyno EpCAM. […] The EC50 values for binding to the 293 cells expressing cyno EpCAM by the humanized conditionally active anti-EpCAM antibodies are summarized in Table 11.

Assay [8] addresses T4, cyno EpCAM expressed on 293 cells. In words: FACS on 293 cells expressing cyno EpCAM, pH 7.4. The method, then: as §4
Assay [9] has as its target T2, human EpCAM expressed on cells (CHO, …). Nature of the assay: FACS on 293 cells expressing human EpCAM, pH 6.0. The method, then: (§5) A similar FACS analysis was also carried out using 293 cells expressing human EpCAM. […] The EC50 values for binding to the 293 cells expressing human EpCAM by the humanized conditionally active anti-EpCAM antibodies are summarized in Table 10.

For assay [10] the target is unchanged. In words: FACS on 293 cells expressing human EpCAM, pH 7.4. The method, then:
as §5

Assay [11] shares this target. In words: FACS on Colo205 cells expressing human EpCAM, pH 6.0. The method, then:
(§6) Binding activities of the humanized conditionally active anti-EpCAM antibodies to Colo205 cells expressing human EpCAM were measured by FACS at pH 6.0 and pH 7.4. […] The EC50 values for binding to the Colo205 cells expressing human EpCAM by the humanized conditionally active anti-EpCAM antibodies are summarized in Table 9.

For assay [12] the target is unchanged. Nature of the assay: FACS on Colo205 cells expressing human EpCAM, pH 7.4. The method, then: as §6
In assay [13] the target is T3, cyno EpCAM (recombinant, ELISA antigen). In words: direct binding ELISA, cyno EpCAM, pH 6.0 (printed as IC50).
For assay [14] the target is unchanged. Nature of the assay: direct binding ELISA, cyno EpCAM, pH 7.4 (printed as IC50).
Assay [15] has the same target. Nature of the assay: direct binding ELISA, cyno EpCAM; ratio of the printed IC50 at pH 7.4 to pH 6.0.
For assay [16], the target named is T1, recombinant human EpCAM extracellular …. In words: direct binding ELISA, human EpCAM; ratio of the printed IC50 at pH 7.4 to pH 6.0.
Assay [17] has the same target. In words: direct binding ELISA, human EpCAM, pH 6.0 (table prints IC50, the text paragraph 376 says EC50).
Assay [18] shares this target. Nature of the assay: direct binding ELISA, human EpCAM, pH 7.4 (table prints IC50, the text paragraph 376 says EC50).
Assay [19] has the same target. Nature of the assay: ELISA on human EpCAM at pH 6.0 after heating the antibody for 1 h at 4, 37, 45, 55 or 60 C. The method, then:
The thermostability of the humanized conditionally active anti-EpCAM antibodies was evaluated by measuring their binding activities after heat treatment. The binding activities of the humanized conditionally active anti-EpCAM antibodies to human EpCAM after heat treatment for one (1) hour at different temperatures at pH 6.0 and pH 7.4 were measured by ELISA.
as §2

T4 sequence (Q1WER1 24-314): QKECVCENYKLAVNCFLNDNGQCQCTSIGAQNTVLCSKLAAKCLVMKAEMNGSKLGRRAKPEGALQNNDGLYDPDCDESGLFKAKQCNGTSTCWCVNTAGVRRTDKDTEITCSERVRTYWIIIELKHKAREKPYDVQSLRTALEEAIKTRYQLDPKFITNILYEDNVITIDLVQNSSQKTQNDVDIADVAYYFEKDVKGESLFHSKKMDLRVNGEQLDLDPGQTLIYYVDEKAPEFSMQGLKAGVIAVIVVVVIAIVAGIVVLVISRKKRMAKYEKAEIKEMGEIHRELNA

B1: BAP-105-01-03 (antibody, V domains shown)
VH: QVQLQQSGAELAKPGASVKVSCKASGYTFTSYWMHWVKQRPGQGLEWIGYIRPSTGYTEYNQKFKDKATLTADKSSSTAYMQLSSLTFEDSAVYYCGDGDNWVGFANWGQGTLVTVSA
VL: QIVLTQSPAIMSASLGEEIALTCSASSSISYMHWYQQKSGTSPKLLIYSTSNLASGVPSRFSGSGSGTFYSLTISSVEAEDAADYFCHQWSTYHTFGSGTKLEIK
With B1, the binding result in [1] and in [2] was “binds” each time.

B2: BAP-105-01-01 (antibody, V domains shown)
VH: B1 VH with D98R
VL: B1 VL
notes: Non-conditionally active control; also called template antibody (WT)
Usually EC50 stands for the midpoint of the concentration-response curve. A word on the IC50: it is the midpoint of a concentration-inhibition curve. B2: the EC50 was determined as 0.0112 µg/mL in assay [3]; 0.3 µg/mL in [4]; 0.00833 µg/mL in assay [5]; 0.00781 µg/mL in [6]; 0.625 µg/mL in [7]; 0.863 µg/mL in [8]. Besides, the EC50 in assay [9] amounted to 0.092 µg/mL; in [10] it was 0.125 µg/mL; in assay [11] it was 0.263 µg/mL; in [12], 0.268 µg/mL. Further, the IC50 was 0.0288 µg/mL in assay [13], 0.0416 µg/mL in [14], 0.0586 µg/mL in assay [17] and 0.0423 µg/mL in assay [18]. Also, the “ratio (pH7.4/pH6.0)” value in assay [15] came to 1.44; in assay [16], 0.72.

B3: BAP-105-01-06 (antibody, V domains shown)
VH: B1 VH with D98R
VL: B1 VL with H94E
notes: also called BAP-1-5-01-06
Consider B3, for which the binding result in [2] and in [19] was “binds” each time.

B4: 105.4-05-04 (antibody, V domains shown)
VH: EVQLVQSGAEVKKPGATVKISCKVSGYTFTSYWMHWIRQSPSRGLEWLGYIRPSTGYTEYNQKFKDRFTISRDDSKNTAYLQMNSLKTEDTAVYYCGRGDNWVGFANWGQGTLVTVSS
VL: EIVMTQSPATLSVSPGERATLSCSASSSISYMHWYQQKPGKAPKLLIYSTSNLASGVPSRFSGSGSGTDFTLTISSLQPEDFATYYCHQWSTYETFGQGTKVEIK
With B4, the binding result in [19] was “binds”.

B5: BA-105-06-01 (antibody, V domains shown)
VH: B4 VH with S40P, S42G, R43K, L48I, D74N, A79L, K87R, T88A
VL: EIVLTQSPDFQSVTPKEKVTITCSASSSISYMHWYQQKPGKAPKLLIYSTSKLASGVPDRFSGSGSGTDFTLKISRVEAEDVGVYYCHQWSTYETFGQGTKVEIK
notes: Humanized
Turning to B5, the IC50 worked out at 0.00371 µg/mL in assay [13], 0.0635 µg/mL in [14], 0.0299 µg/mL in assay [17] and 0.168 µg/mL in [18]. The “ratio (pH7.4/pH6.0)” value in [15] worked out at 17.1; in assay [16] it was 5.6.

B6: BA-105-06-02 (antibody, V domains shown)
VH: B4 VH with S40P, S42G, R43K, L48I, D74N, A79L, K87R, T88A
VL: B5 VL with K52S
notes: Humanized
Regarding B6, the half-inhibitory concentration (IC50) stood at 0.152 µg/mL in assay [13], 0.673 µg/mL in assay [14], 0.105 µg/mL in assay [17] and 0.262 µg/mL in assay [18]. The “ratio (pH7.4/pH6.0)” value in assay [15] amounted to 4.44; in [16], 2.5.
